Measurements taken from US20220073608A1 (JIANGSU HUAIYU PHARMACEUTICAL, published 2022).
Changes are numbered by the printed parent chain.

T1: human SEMA4D, full length, on CHO-K1 cells (CHO-K1 hSEMA4D) (human, UniProt Q92854 22-862)
T1 construct: whole, on cells; also called human SEMA4D recombinant cells
T1 sequence (looked up): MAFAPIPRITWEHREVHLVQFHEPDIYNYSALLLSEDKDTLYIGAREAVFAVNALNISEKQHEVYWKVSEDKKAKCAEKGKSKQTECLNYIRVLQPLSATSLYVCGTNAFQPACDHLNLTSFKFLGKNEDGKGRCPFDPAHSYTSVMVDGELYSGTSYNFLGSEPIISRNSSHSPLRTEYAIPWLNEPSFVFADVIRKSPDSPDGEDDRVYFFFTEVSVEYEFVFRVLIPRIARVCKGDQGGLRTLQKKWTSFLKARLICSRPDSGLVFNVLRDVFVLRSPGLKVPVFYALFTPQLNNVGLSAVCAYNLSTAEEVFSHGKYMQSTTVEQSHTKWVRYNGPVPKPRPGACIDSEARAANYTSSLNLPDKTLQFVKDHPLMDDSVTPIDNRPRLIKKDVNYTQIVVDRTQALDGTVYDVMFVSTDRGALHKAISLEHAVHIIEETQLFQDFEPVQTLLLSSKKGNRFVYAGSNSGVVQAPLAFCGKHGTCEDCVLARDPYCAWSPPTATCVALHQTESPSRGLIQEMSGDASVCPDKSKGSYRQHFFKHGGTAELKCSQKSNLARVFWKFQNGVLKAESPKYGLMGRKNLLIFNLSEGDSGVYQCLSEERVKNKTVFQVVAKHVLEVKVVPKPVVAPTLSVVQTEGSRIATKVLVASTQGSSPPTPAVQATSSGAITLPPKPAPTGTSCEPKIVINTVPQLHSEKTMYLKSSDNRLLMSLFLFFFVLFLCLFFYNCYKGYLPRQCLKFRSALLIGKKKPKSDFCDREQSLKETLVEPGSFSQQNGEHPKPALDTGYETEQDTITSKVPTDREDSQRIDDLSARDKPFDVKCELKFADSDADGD

T2: hSEMA4D ECD-His (His-tagged human SEMA4D protein extracellular domain, Met22-Arg734) (human, UniProt Q92854 22-734)
T2 construct: Expressed in CHO-S cells, purified on Ni column; also called protein immunogen; immunogen A; not shown: His tag of the pCP vector
T2 sequence: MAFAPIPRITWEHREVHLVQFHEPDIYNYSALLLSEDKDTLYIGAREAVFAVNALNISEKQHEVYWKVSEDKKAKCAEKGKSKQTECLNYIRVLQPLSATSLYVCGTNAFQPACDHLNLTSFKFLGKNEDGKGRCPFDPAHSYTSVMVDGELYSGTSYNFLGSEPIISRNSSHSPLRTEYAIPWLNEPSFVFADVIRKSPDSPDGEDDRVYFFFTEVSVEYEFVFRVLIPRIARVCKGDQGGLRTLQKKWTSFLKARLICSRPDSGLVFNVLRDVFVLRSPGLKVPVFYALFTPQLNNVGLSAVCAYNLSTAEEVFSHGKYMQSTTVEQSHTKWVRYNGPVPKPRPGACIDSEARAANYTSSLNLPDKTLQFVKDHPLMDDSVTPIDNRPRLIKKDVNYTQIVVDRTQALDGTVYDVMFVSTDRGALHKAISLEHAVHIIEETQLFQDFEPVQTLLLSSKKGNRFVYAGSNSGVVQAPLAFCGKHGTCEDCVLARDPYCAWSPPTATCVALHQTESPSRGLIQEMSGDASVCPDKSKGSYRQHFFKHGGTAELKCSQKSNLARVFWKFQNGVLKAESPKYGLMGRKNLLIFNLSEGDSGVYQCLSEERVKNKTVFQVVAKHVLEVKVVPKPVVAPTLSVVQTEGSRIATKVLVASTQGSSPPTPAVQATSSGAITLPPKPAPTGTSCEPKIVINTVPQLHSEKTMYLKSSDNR

B1: 32C8F10 (antibody, V domains shown)
VH: EVQLQQSGAELVRPGASVKLSCTASGFNIKDEYIHWVKQRPEQGLEWIGWIDPANGHTEYASRFQAKATITADTSSNTAYLQLSSLTSEDTAVYYCTTGDYDGFAYWGQGTLVTVST
VL: QIVLTQSPAIMSASPGEKVTISCSARSSVSYMYWYQQKPGSSPKPWIYRTSNLASGVPARFSGSGSGTSYSLTISSMEAEDAATYYCQHYHTYPYTFGGGTKLEIK
notes: Mouse monoclonal antibody purified from hybridoma supernatant on protein A
B2: 31G10C5 (antibody, V domains shown)
VH: B1 VH with E32D, T58I, R63N, A105T
VL: B1 VL
notes: as for B1
B3: 31C11G2 (antibody, V domains shown)
VH: B1 VH with A105V
VL: B1 VL with S22F
notes: as for B1
B4: 37C4F7 (antibody, V domains shown)
VH: EFQLQQSGPEVVKPGASVKISCKASGYSFTDYNMNWMKQSKGKSLEWIGVINPNYGTTTYNQNFKGKATLTVDQSSSTAYMQLNSLTSEDSAVYYCARDMYYVYAYYTMDYWGQGTSVTVSS
VL: DVVMTQTPLSLPVSLGDQASISCRSSQSLVHSNGHTYLHWYLQRPGQSPTLLIYKVSNRFSGVPDRFSGSGSGTDFTLKISRVEAEDLGVYFCSQGTHVPWTFGGGTKLEIK
notes: as for B1
B5: 38H2E3 (antibody, V domains shown)
VH: B4 VH with N52S, N54D, G66D, R98K, Q114H
VL: B4 VL with F67V, W101R
notes: as for B1
B6: 37F11F9 (antibody, V domains shown)
VH: EVQLQQSGPVLVKPGASVKMSCKASGYTFTDYYMNWVKQSHGKSLEWIGLINPYSGGSTFNQKFKAKATLTVDKSSSSAYMDLNSLTSEDSAVYYCARVGDGYYGVTHGMDYWGQGTSVTVSS
VL: DIVMTPSQKFMSTTVGDRVSITCKASQNVGTAVAWYQQKPGQSPTILIYSASNRYTGVPDRFTGSGSGTDFTLTISNMKSEDLADYFCQQYYIYPFTFAAGTKLELK
notes: as for B1
B7: 42B7G2 (antibody, V domains shown)
VH: QVQLQQSGAELARPGASVKLSCKASGYTFTDYGISWVKQRTGQGLEWIGEIYLRNDNSYYNEKFKGKATLTADKSSNTAYMELRSLTSEDSAVYFCARWGDHGNNYEDAMDYWGQGTSVTVSS
VL: DIVLTQSPASLAMSLGKRATISCRASESVSIIGSNLIHWYQQKPGQPPKLLIYHASNLETGVPARFSGSGSRTDFTLTIDPVEEDDVAIYYCLQSRKVPYTFGGGTKLEIK
notes: as for B1

Target: T1, human SEMA4D, full length, on CHO-K1 …
Assay: FACS, CHO-K1 hSEMA4D cells; Ab 0.000853 nM
Method: (§1) The medium was aspirated, the cells were washed once with PBS buffer (purchased from Invitrogen), and then treated with cell dissociation fluid (TrypLE™ Express Enzyme, purchased from Life technology), and the cells were collected. After the cells counted, the cells were washed once with PBS phosphate buffer, and diluted to 3×10⁶ cells per milliliter, and added to the 96-well FACS reaction plate as 100 μL per well. 2% (w/w) fetal calf serum was added to PBS phosphate buffer as FACS buffer, with which the cells were washed once by centrifugation at 2000 rpm 4° C. 100 μL of diluted and purified leading antibodies was added to each well and the plate was incubated for 1 hour on ice. […] Cells were washed 2 times by centrifugation with FACS buffer. The cells were suspended with 200 μL of FACS buffer, and FACS (FACS Verse, purchased from BD) was used to detect and analyze the results.

**Q.** B1 was tested. Which MFI did it give?
**A.** 47.3

**Q.** With B2 as the binder, how does the MFI read?
**A.** 47

**Q.** With B3 as the binder, how does the MFI read?
**A.** 46.7

**Q.** For B4, which MFI is on record?
**A.** 36.9

**Q.** How did the MFI turn out when B5 was run?
**A.** 36.7

**Q.** For B6, which MFI is on record?
**A.** 38.2

**Q.** How did the MFI turn out when B7 was run?
**A.** 41.2

Target: T1, human SEMA4D, full length, on CHO-K1 …
Assay: FACS, CHO-K1 hSEMA4D cells; Ab 66.7 nM
Method: as §1

**Q.** How did the MFI turn out when B1 was run?
**A.** 8760

**Q.** How did the MFI turn out when B2 was run?
**A.** 7410

**Q.** How did the MFI turn out when B3 was run?
**A.** 6750

**Q.** How did the MFI turn out when B4 was run?
**A.** 4740

**Q.** B5 was tested. Which MFI did it give?
**A.** 5470

**Q.** B6 was tested. Which MFI did it give?
**A.** 4110

**Q.** For B7, which MFI is on record?
**A.** 4120

Target: T2, hSEMA4D ECD-His (His-tagged human …)
Assay: ELISA, coated hSEMA4D ECD-His; Ab 0.0533 nM
Method: (§2) First, hSEMA4D ECD-His was diluted with PBS to a final concentration of 1.0 μg/mL, and then was added to a 96-well ELISA plate, 100 μL per well, sealed with plastic film and incubated overnight at 4° C. On the next day, the plate was washed with a plate washing solution, that is, PBS buffer containing 0.05% (v/v) Tween20, for 4 times, and added with blocking solution, that is, PBS buffer containing 0.05% (v/v) Tween20 and 2% (w/w) BSA, blocked at 37° C. for 1 hour. The blocking solution was poured out and the plate was washed 4 times with the plate washing solution. 100 μL of the purified leading antibodies obtained in Examples 1 and 2 was added to each well. After incubation at 37° C. for 1 hour, the plate was washed 4 times with a plate washing solution. 100 μL of horseradish peroxidase (HRP) labeled secondary antibody (purchased from Sigma) was added at a dilution of 1:10000 to each well, and the plate was incubated at 37° C. for 1 hour, and washed 4 times with a plate washing solution. 100 μL TMB substrate was added to each well, and the plate was incubated at room temperature for 5 minutes, and added with 100 μL stop solution (1.0N HCl) to each well. A microplate reader (SpectraMax M5e, purchased from Molecular Device) was used to read the A450 nm value. […] Wherein, the data in the table was the OD450 nm value.

**Q.** Which OD450 nm does the source give for B1 here?
**A.** 0.551

**Q.** How did the OD450 nm turn out when B2 was run?
**A.** 0.526

**Q.** For B3, which OD450 nm is on record?
**A.** 0.817

**Q.** B4 was tested. Which OD450 nm did it give?
**A.** 0.162

**Q.** How did the OD450 nm turn out when B5 was run?
**A.** 0.194

**Q.** Which OD450 nm does the source give for B6 here?
**A.** 0.365

**Q.** How did the OD450 nm turn out when B7 was run?
**A.** 0.696

Target: T2, hSEMA4D ECD-His (His-tagged human …)
Assay: ELISA, coated hSEMA4D ECD-His; Ab 0.000085 nM
Method: as §2

**Q.** B1 was tested. Which OD450 nm did it give?
**A.** 0.0699

**Q.** With B2 as the binder, how does the OD450 nm read?
**A.** 0.0694

**Q.** B3 was tested. Which OD450 nm did it give?
**A.** 0.0753

**Q.** With B4 as the binder, how does the OD450 nm read?
**A.** 0.0661

**Q.** B5 was tested. Which OD450 nm did it give?
**A.** 0.0635

**Q.** B6 was tested. Which OD450 nm did it give?
**A.** 0.0658

**Q.** For B7, which OD450 nm is on record?
**A.** 0.0753
